Reference: patent publication US20230365956A1

Assays:
[1] = target: SARS-CoV-2 RBD variant Alpha (N501Y) (Sino Biological) (SARS-CoV-2) (UniProt P0DTC2); experiment: BLI, affinity format: binder on AHC sensor, RBD in solution
[2] = target: SARS-CoV-2 RBD variant Lambda (L452Q, F490S) (Sino Biological) (SARS-CoV-2) (UniProt P0DTC2); experiment: as above
[3] = target: SARS-CoV-2 RBD variant Gamma (K417T, E484K, N501Y) (Sino Biological) (SARS-CoV-2) (UniProt P0DTC2); experiment: as above
[4] = target: SARS-CoV-2 RBD variant Beta (K417N, E484K, N501Y) (Sino Biological) (SARS-CoV-2) (UniProt P0DTC2); experiment: as above
[5] = target: SARS-CoV-2 RBD variant Delta (L452R, T478K) (Sino Biological) (SARS-CoV-2) (UniProt P0DTC2); experiment: as above
[6] = target: SARS-CoV-2 RBD variant Kappa (L452R, E484Q) (Sino Biological) (SARS-CoV-2) (UniProt P0DTC2); experiment: as above
[7] = target: SARS-CoV-2 RBD variant Alpha (N501Y) (Sino Biological) (SARS-CoV-2) (UniProt P0DTC2); experiment: BLI, avidity format: biotinylated RBD on SA sensor, binder in solution
[8] = target: SARS-CoV-2 RBD variant Lambda (L452Q, F490S) (Sino Biological) (SARS-CoV-2) (UniProt P0DTC2); experiment: as above
[9] = target: SARS-CoV-2 RBD variant Gamma (K417T, E484K, N501Y) (Sino Biological) (SARS-CoV-2) (UniProt P0DTC2); experiment: as above
[10] = target: SARS-CoV-2 RBD variant Beta (K417N, E484K, N501Y) (Sino Biological) (SARS-CoV-2) (UniProt P0DTC2); experiment: as above
[11] = target: SARS-CoV-2 RBD variant Delta (L452R, T478K) (Sino Biological) (SARS-CoV-2) (UniProt P0DTC2); experiment: as above
[12] = target: SARS-CoV-2 RBD variant Kappa (L452R, E484Q) (Sino Biological) (SARS-CoV-2) (UniProt P0DTC2); experiment: as above
[13] = target: SARS-CoV-2 RBD variant Alpha (N501Y) (Sino Biological) (SARS-CoV-2) (UniProt P0DTC2); experiment: BLI, avidity format: response at highest analyte concentration
[14] = target: SARS-CoV-2 RBD variant Lambda (L452Q, F490S) (Sino Biological) (SARS-CoV-2) (UniProt P0DTC2); experiment: as above
[15] = target: SARS-CoV-2 RBD variant Gamma (K417T, E484K, N501Y) (Sino Biological) (SARS-CoV-2) (UniProt P0DTC2); experiment: as above
[16] = target: SARS-CoV-2 RBD variant Beta (K417N, E484K, N501Y) (Sino Biological) (SARS-CoV-2) (UniProt P0DTC2); experiment: as above
[17] = target: SARS-CoV-2 RBD variant Delta (L452R, T478K) (Sino Biological) (SARS-CoV-2) (UniProt P0DTC2); experiment: as above
[18] = target: SARS-CoV-2 RBD variant Kappa (L452R, E484Q) (Sino Biological) (SARS-CoV-2) (UniProt P0DTC2); experiment: as above
[19] = target: SARS-CoV-2 RBD variant Alpha (N501Y) (Sino Biological) (SARS-CoV-2) (UniProt P0DTC2); experiment: BLI, affinity format: response at highest analyte concentration
[20] = target: SARS-CoV-2 RBD variant Lambda (L452Q, F490S) (Sino Biological) (SARS-CoV-2) (UniProt P0DTC2); experiment: as above
[21] = target: SARS-CoV-2 RBD variant Gamma (K417T, E484K, N501Y) (Sino Biological) (SARS-CoV-2) (UniProt P0DTC2); experiment: as above
[22] = target: SARS-CoV-2 RBD variant Beta (K417N, E484K, N501Y) (Sino Biological) (SARS-CoV-2) (UniProt P0DTC2); experiment: as above
[23] = target: SARS-CoV-2 RBD variant Delta (L452R, T478K) (Sino Biological) (SARS-CoV-2) (UniProt P0DTC2); experiment: as above
[24] = target: SARS-CoV-2 RBD variant Kappa (L452R, E484Q) (Sino Biological) (SARS-CoV-2) (UniProt P0DTC2); experiment: as above

Substance: Cilgavimab (antibody)
- Kd [1]: 2.44 nM
- koff [1]: 0.000981 s⁻¹
- kon [1]: 401000 M⁻¹ s⁻¹
- Kd [2]: 9.81 nM
- koff [2]: 0.00348 s⁻¹
- kon [2]: 354000 M⁻¹ s⁻¹
- Kd [3]: 2.82 nM
- koff [3]: 0.0011 s⁻¹
- kon [3]: 392000 M⁻¹ s⁻¹
- Kd [4]: 1.43 nM
- koff [4]: 0.000631 s⁻¹
- kon [4]: 441000 M⁻¹ s⁻¹
- Kd [5]: 7.34 nM
- koff [5]: 0.00321 s⁻¹
- kon [5]: 438000 M⁻¹ s⁻¹
- Kd [6]: 9.89 nM
- koff [6]: 0.00364 s⁻¹
- kon [6]: 368000 M⁻¹ s⁻¹
- Kd [7]: 0.124 nM
- koff [7]: 4.26e-05 s⁻¹
- kon [7]: 344000 M⁻¹ s⁻¹
- Kd [8]: 0.0815 nM
- koff [8]: 2.37e-05 s⁻¹
- kon [8]: 291000 M⁻¹ s⁻¹
- Kd [9]: 0.193 nM
- koff [9]: 7.42e-05 s⁻¹
- kon [9]: 385000 M⁻¹ s⁻¹
- Kd [10]: 0.273 nM
- koff [10]: 9.67e-05 s⁻¹
- kon [10]: 355000 M⁻¹ s⁻¹
- Kd [11]: 0.0481 nM
- koff [11]: 1.61e-05 s⁻¹
- kon [11]: 335000 M⁻¹ s⁻¹
- Kd [12]: 0.204 nM
- koff [12]: 6.08e-05 s⁻¹
- kon [12]: 298000 M⁻¹ s⁻¹
- Response [13]: 0.697 nm shift
- Response [14]: 0.727 nm shift
- Response [15]: 0.657 nm shift
- Response [16]: 0.473 nm shift
- Response [17]: 0.525 nm shift
- Response [18]: 0.628 nm shift
- Response [19]: 0.452 nm shift
- Response [20]: 0.236 nm shift
- Response [21]: 0.428 nm shift
- Response [22]: 0.438 nm shift
- Response [23]: 0.357 nm shift
- Response [24]: 0.322 nm shift
